In US20160311923A1 (SORRENTO THERAPEUTICS, published 2016):

B1: D03 (antibody, V domains shown)
VH: QVQLVESGGGLVKPGGSLRLSCAASGFTFSSYSMNWVRQAPGKGLEWVSSISSSSSYIYYADSVKGRFTISRDNSKNTLYLQMNSLRDEDTAVYYCAREILTGYYPDAFDMWGQGTMVTVSS
VL: SYELMQPPSVSVAPGKTARITCGGNNIGSKSVHWYQQKPGQAPVVVIYYDSDRPSGIPERFSGSNSGNTATLTISRVEAGDEADYYCQVWDSSSDHYVFGTGTKLTVL
B2: C03 (antibody, V domains shown)
VH: QVQLVQSGAEVKKPGASVKVSCKASGYTFTSYGISWVRQAPGQGLEWMGWISAYNGNTNYAQKLQGRVTMTTDTSTSTAYMELRSLRSDDTAVYYCAREAYAWGAFDIWGQGTMVTVSS
VL: SYELMQPPSVSVAPGKTARITCGGNNIGSKSVHWYQQKPGQAPVLVIYYDSDRPSGIPERFSGSNSGNTATLTISRVEAGDEADYYCQVWDSSRDHAVFGGGTKLTVL
B3: A02 (antibody, V domains shown)
VH: EVQLVQSGAEVKKPGASVTVSCKPSGYAFTDYYIHWVRQAAGQGLEWMGWVDPRSGATVYAQNFQGRVTMTRDRSSSTVYMDLSRVTSDDTALYFCGRDNYGIFDYWGQGTLVTVSS
VL: QPVLTQPPSVSAAPGQRVTISCSGSSSNIGNNYLSWYQQLPGTAPKLLIYDDTKRPSGIPDRFSGSKSGTSATLGITGLQTGDEADYYCGTWDGSLDAEVFGTGTKLTVL
notes: also called ErbB3-A02; anti-ErbB3 A02
B4: A08 (antibody, V domains shown)
VH: QMQLVQSGADVKKPGASVRVSCKTSGYTFTSYDINWVRQAPGQGLEWMGWMNPDTGNTAYVQKFQGRVTVTRDTSINTVYMELSGLRSEDTAVYYCAKSGGSSSYDAFDIWGQGTMVTVSS
VL: QSVLTQPPSVSVAPGNTATITCGGDNIGEKTVHWYQQRPGQAPALVIYYDSDRPSGIPERFSGSNSGNTATLTISRVEAGDEADYYCQVWDSSSDHVVFGGGTKLTVL
notes: also called ErbB3-A08
B5: A11 (antibody, V domains shown)
VH: QVQLVQSGRGLVQPGRSLRLSCAASGFTFDEYAMHWVRHAPGKGLEWVAGMSWNGGGIGYADSVKGRFTISRDNSKNTLYLQMNSLRAEDTAVYYCAREGAGGSYPTDAFDIWGQGTTVTVSS
VL: IVLTQSPSSLSASVGDRVTITCQASHDISNYLTWYQHRPGRAPKLLIFDASRLETGVPSRFSGYGSGKDFTFTISGLQPEDFATYYCQHYADLPSFGQGTKLEIK
notes: also called ErbB3-A11
B6: B11 (antibody, V domains shown)
VH: QVQLVQSGRGLVQPGRSLRLSCAASGFTFDEYAMHWVRHAPGKGLEWVAGMSWNGGGIGYADSVKGRFTISRDNSKNTLYLQMNSLRAEDTAVYYCAREGAGGSYPTDAFDIWGQGTTVTVSS
VL: EIVLTQSPSSLSASVGDRVTITCQASHDISNYLTWYQHRPGRAPKLLIFDASRLETGVPSRFSGYGSGKDFTFTISGLQPEDFATYYCQHYADLPSFGQGTKVDIK
B7: A04 (antibody, V domains shown)
VH: QVQLQQSGPGLVQPSQTLSLTCDISGDSVSSTGAAWNWIRQSPSRGLEWLGRTYYRSKWYNDYALSVRSRITITPDTSKNQFSLQLNSVTPEDTAVYYCVRDGDVGLDAFDIWGQGTMVTVSS
VL: QTVVTQAPSVSVAPGQTARITCGGNNIGSKSVHWYQQKPGQAPVLVVYDDSDRPSGIPERFSGSNSGNTATLTISRVEAGDEADYYCQVWDSTSDHVVFGGGTKVTVL
notes: also called ErbB3-A04; anti-ErbB3 A04
B8: E08 (antibody, V domains shown)
VH: EVQLVESGGGLIQPGGSLRLSCAASGFTVSSNYMSWVRQAPGKGLEWVSVIYSGGSTYYADSVKGRFTISRDNSKNTLYLQMNSLRAEDTAVYYCARDFGVGAVDYWGQGTLVTVSS
VL: QSVLTQPASVSGSPGQSITISCTGTSSDVGGYNFVSWYQQHPGKAPKLMIYDVTNRPSGVSNRFSGSKSGNTASLTISGLQAEDEADYYCSSYTDSSTLDVVFGGGTKVTVL
B9: D04 (antibody, V domains shown)
VH: EVQLLESGGGLVKPGGSLRLSCAASGFTFSSYSMNWVRQAPGKGLEWVSSISSSSSYIYYADSVKGRFTISRDNAKNSLYLQMNSLRAEDTAVYYCARGFGEDLFDYWGQGTLVTVSS
VL: QSVLTQPPSVSVAPGKTARITCGGNNIGSKSVHWYQQKPGQAPLLVIYYDTDRPSGIPERFSGSNSENTATLTISGVEAGDEADYYCQVWDIGSDQVVFGTGTKVTVL
B10: D10 (antibody, V domains shown)
VH: QVQLVESGGGLVQPGGSLRLACAASGFTFSNYEMNWVRQAPGKGLEWVATISDDSVYKYYADSVKGRFTISRDNSKALFYLQMDSLTFEDTAIYYCARDPGGDSLGYFQHWGQGTLVTVSS
VL: QAGLTQPPSASASPGDSVTLTCTLSSDHSDYKVDWYQQRPGKGPRFVMRVGTGGIVGVKGDGIPDRFSVWGSGPNRYLTIKNIQEEDESDYHCGSDHGSGNNYVYVFGGGTKLTVL
B11: B01 (antibody, V domains shown)
VH: QVQLVESGGGLVQPGGSLRLACAASGFTFSNYEMNWVRQAPGKGLEWVATISDDSVYKYYADSVKGRFTISRDNSKALFYLQMDSLTFEDTAIYYCARDPGGDSLGYFQHWGQGTLVTVSS
VL: QAGLTQPPSASASPGDSVTLTCTLSSDHSDYKVDWYQQRPGKGPRFVMRVGTGGIVGVKVSNRFSGSKSGNTASLTISGLQAEDEADYYCSSYTDSSTLDVVFGGGTKLTVL
B12: B08 (antibody, V domains shown)
VH: QVQLVQSGAEVKKPGASVKVSCKASGYTFTSHYGISWVRQAPGQGLEWMGSITPHNGKTNYVQMFQGRVTMTTDTSTRTVYMELRNLRSDDTAVYYCARDWNFADFDYWGQGTLVTVSS
VL: QSVLTQPPSASGSPGQSVTISCTGTSSDVGGYNFVSWYQQHPGKAPKLMIYDVTNRPSGVSNRFSGSKSGNTASLTISGLQAEDEADYYCSSYTSSSTPYVFGTGTKLTVL
B13: D01 (antibody, V domains shown)
VH: EVQLVQSGAEVRKPGASVKVSCKASQYTFTNYHIHWVRQVPGQGLEWMAMINPSNGNTNYGQRFQDRVTLTRDTSTSTAYMELSSLRSEDTAVYLCARDGLTFGDLLAYWGQGTLVTVSS
VL: QSVLTQPPSASGTPGQSVTISCSGSSSNIGGNTVNWYQQFPGTAPKLLMYINNLRPAGVPDRFSGSKSGTSASLVISGLQSEDEADYYCASWDDSLSGLVFGGGTKLTVL
B14: D08 (antibody, V domains shown)
VH: QVQLVESGGGLVKPGGSLRLSCAASGFTSSSYVLNWVRQAPGKGLEWVSSISSRGSYIYYADSVKGRFTISRDNAKNSLYLQMNSLRAEDTAVYYCARERAGFSPVNAFDIWGQGTMVTVSS
VL: QSVLTQPASVSGSPGQSITISCTGSSSDVGSYNLVSWYQQHPGKAPKLMIYDDNRRPSGISTRFSGSKSGNTASLTVSGLQAEDEAYYYCSSYAGRNNDVIFGGGTQLTVL
B15: D07 (antibody, V domains shown)
VH: QVQLVESGGGLVQPGGSLRLSCVASGFTFSSYWMSWVRQAPGKGLEWVAYINLDGSEKDYVDSVKGRFTISRDNAKNSLYLQMNSLRAEDTALYYCAKAYSSSWLLSGGMDVWGQGTTVTVSS
VL: SYELTQPASVSGSPGQSITISCTGTSSDVGNYNSVSWYQQHPGKAPELMIYDVNNRPSGVSNRFSGSKSGNTASLTISGLQAEDEADYYCSSYTSSSTLVFGGGTQLTVLG
B16: A01 (antibody, V domains shown)
VH: QVQLVQSGAEVKQPGASVKVSCKASGGTFSSYAISWVRQAPGQGLEWMGGIIPIFGTANYAQKFQGRVTITADESTSTAYMELSSLRSEDTAVYYCATTTMVRGVIMYYFDYWGQGTLVTVSS
VL: QSALTQPPSASGSPGQSVTISCTGTSSDVGAYNDVSWYQHHPGKAPKLIIYEVNHRPSGVPDRFSGSKSDNTASLTISGLQAEDEADYYCSSYTPSNTPLVFGSGTKVTVL
notes: fully human antibody of an IgG class, detected with anti-human IgG (gamma-chain specific); also called ErbB3-A01; anti-ErbB3 A01

How the values were obtained:
[1] = molecular target: T1, endogenous human ErbB3 expressed on human cancer cells (MCF7; A431NS) (human, UniProt P21860 20-1342); experiment: flow cytometry on MCF7 cells
T1 construct: whole, on cells; also called Her3; HER3/c-ErbB3
Description: This example illustrates the binding of anti-ErbB3 antibodies to endogenous human ErbB3 expressed on human cancer cells, as assayed by flow cytometry. EC₅₀ values for antibodies were determined as follows.
Her3 expressing MCF7 cells were harvested with enzyme-free Cell Dissociation Buffer (GIBCO) and transferred to V-Bottom 96 well-plates (50,000 cells/well). Cells were incubated on ice for 30 min with serial dilutions of anti-ErbB3 antibodies in FACS buffer (PBS+2% FBS)+NaN₃. After 2 washes in FACS buffer, a 1:1000 dilution of Phycoerythrin conjugated anti-Human IgG (γ-chain specific) was added and incubated for 30 min. Following a final wash, fluorescence intensity was measured on an Intellicyt High Throughput Flow Cytometer (HTFC). Data were analyzed using Graphpad Prism software using non-linear regression fit. Data points are shown as the median fluorescence intensity (MFI) of positively labeled cells +/− Standard Error. EC₅₀ values are reported as the concentration of antibody to achieve 50% of maximal ErbB3 antibodies binding to ErbB3 expressing cells.

[2] = molecular target: T1, endogenous human ErbB3 expressed on …; experiment: cell-based or functional assay

T1 sequence (P21860 20-1342): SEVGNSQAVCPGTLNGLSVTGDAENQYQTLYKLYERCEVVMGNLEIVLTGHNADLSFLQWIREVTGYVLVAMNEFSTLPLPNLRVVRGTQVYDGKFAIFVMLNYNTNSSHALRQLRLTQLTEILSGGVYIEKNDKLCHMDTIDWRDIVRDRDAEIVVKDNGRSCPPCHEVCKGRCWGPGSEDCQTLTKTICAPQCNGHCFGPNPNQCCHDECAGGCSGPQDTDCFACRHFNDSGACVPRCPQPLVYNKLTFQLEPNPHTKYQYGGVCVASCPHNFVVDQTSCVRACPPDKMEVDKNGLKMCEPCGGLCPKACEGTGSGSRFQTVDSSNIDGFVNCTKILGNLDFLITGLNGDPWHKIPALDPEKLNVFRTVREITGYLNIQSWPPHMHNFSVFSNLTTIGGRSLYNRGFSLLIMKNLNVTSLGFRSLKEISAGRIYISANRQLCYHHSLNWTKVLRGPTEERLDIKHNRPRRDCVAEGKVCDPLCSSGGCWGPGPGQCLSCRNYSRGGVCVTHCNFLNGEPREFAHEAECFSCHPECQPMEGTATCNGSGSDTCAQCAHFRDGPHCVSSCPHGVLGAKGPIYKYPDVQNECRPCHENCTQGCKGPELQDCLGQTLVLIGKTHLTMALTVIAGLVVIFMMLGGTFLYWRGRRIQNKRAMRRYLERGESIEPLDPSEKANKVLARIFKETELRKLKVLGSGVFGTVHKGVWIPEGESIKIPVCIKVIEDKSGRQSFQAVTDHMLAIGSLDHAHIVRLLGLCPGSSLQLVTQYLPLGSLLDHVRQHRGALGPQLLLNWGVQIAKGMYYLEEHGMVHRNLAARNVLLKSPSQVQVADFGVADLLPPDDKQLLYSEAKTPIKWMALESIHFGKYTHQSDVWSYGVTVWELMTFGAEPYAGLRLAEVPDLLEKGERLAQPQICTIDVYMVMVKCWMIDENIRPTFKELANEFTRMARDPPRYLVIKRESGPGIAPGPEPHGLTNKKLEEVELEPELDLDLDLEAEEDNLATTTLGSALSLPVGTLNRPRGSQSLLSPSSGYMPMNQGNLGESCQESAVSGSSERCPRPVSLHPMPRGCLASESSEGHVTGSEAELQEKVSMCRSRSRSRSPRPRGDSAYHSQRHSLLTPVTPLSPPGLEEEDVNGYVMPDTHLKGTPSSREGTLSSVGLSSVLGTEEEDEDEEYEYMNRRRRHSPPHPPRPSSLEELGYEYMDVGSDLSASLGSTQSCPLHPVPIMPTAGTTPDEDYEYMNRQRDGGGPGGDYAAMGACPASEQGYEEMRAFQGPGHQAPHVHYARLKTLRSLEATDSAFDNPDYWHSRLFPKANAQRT

Binder	EC50 [1]	IC50, inhibition of ERK1/2 phosphorylation induced by NRG1 beta-1 (phospho-p44/42 MAPK ELISA, MCF7) [2]	IC50, inhibition of ErbB3 phosphorylation induced by Heregulin (phospho-HER3 ELISA, MCF7) [2]	IC50, inhibition of NRG1-beta 1 induced MCF7 proliferation (MTT) [2]
B1	5.97 nM			
B2	0.427 nM			
B3	1.22 nM	0.12 nM	0.12 nM	2.8 nM
B4	0.747 nM			12.8 nM
B5	0.219 nM			
B6	0.049 nM			
B7	0.163 nM	0.13 nM	0.13 nM	
B8	3.07 nM			
B9	0.0242 nM			
B10	2.01 nM			
B11	2.65 nM			
B12	0.0921 nM			
B13	4.03 nM			
B14	1.93 nM			
B15	0.933 nM			
B16	5.71 nM	0.46 nM	0.46 nM	10.6 nM
